From patent publication US20140256820A1, “THERAPEUTIC AGENT FOR BLOOD-BRAIN BARRIER DISRUPTION SYNDROME” (FUKUOKA UNIVERSITY, priority 2010, published 2014) come the findings set out here.

This series concerns rat brain endothelial cells: RBECs. Type of series: cell-based.

Procedure: Thus, a “t-PA-induced BBB dysfunction model” was prepared by the loading of ischemia and t-PA onto an in vitro BBB model. […] The resulting sample was left for 48 hours under 95% N2/5% CO2 (ischemia) conditions. Then, the permeability test was conducted.

For the substance “t-PA: tissue plasminogen activator, a thrombolytic drug for cerebral infarction; t-PA injection (Activacin; Kyowa Hakko Kirin Co., Ltd.)”, the “permeability of albumin (Evans blue-albumin: EBA) on loading of t-PA under ischemic conditions” value is reported as “increased the permeability” and the “permeability of fluorescein sodium on loading of t-PA under ischemic conditions” value is on record as “increased the permeability”.
